The target of test [1] is human complement component C5 protein (human). Kind of test: cell-based or functional assay.
Test [2] has the same target. Kind of test: Biacore 3000 SPR, scFv immobilised on CM5 chip, C5 0.1875-24 nM as analyte, 25 C, 1:1 Langmuir model.
In test [3] the target is R38Q scFv (variant of the anti-C5 single chain antibody pexelizumab). Kind of test: Biacore SPR self-association, R38Q scFv immobilised on CM5 chip, R38Q scFv 0.6-75 µM as analyte; poor fit to the Langmuir model.

One may read the Kd as the constant that tells how readily two partners part at equilibrium. High values mean a looser complex, low ones a tighter complex. By koff is commonly meant the rate constant with which the complex falls apart. A higher koff goes with fast dissociation. As a reminder, the kon is a measure of how fast the partners come together. A lower kon goes with slow association.

For the substance “R38Q scFv (variant of the anti-C5 single chain antibody pexelizumab)”, the inhibition of chicken erythrocyte hemolysis in about 10% normal human serum (absorbance at 415 nm), IC50 in test [1] is 2 µg/mL. For the same substance, in test [2], the Kd turned out to be 0.000108 µM, the off-rate (koff) was 6.06e-05 s⁻¹ and the on-rate constant (kon) is 559000 M⁻¹ s⁻¹. Further, in test [3], the equilibrium dissociation constant (Kd) is 32 µM, the koff amounted to 0.0107 s⁻¹ and the kon amounted to 334 M⁻¹ s⁻¹.

The values above are taken from patent US20130273052A1.
